Measurements as given in publication PMC10287707.

Tests used:
TIA1 RRM2_3 = molecular target: T1, TIA1 RRM2_3 (human, UniProt P31483-2 93-274); assay: EMSA; EMSA: 10 mM sodium phosphate pH 6.5, 50 mM NaCl, 1 mM DTT, 1 U/ul SUPERase-In, room temperature 20 min, native 1.2% agarose; RNA annealed in 10 mM Tris-HCl pH 7.5, 100 mM KCl; settings: protein: recombinant, tags: His6-SUMO removed by SUMO protease, label: 5'-Cy3
T1 sequence: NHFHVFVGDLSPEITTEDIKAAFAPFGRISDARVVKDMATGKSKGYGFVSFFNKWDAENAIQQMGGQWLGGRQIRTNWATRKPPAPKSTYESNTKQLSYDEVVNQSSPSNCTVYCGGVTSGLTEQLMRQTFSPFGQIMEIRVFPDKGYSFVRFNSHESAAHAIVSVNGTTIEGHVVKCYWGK

TIA1 RRM1-3 = molecular target: T2, TIA1 RRM1-3 (human, UniProt P31483-2 1-274); assay: as above; settings: protein: recombinant; tags: His6-SUMO, removed (same protocol as RRM2_3); label: 5'-Cy3; single strand
T2 sequence: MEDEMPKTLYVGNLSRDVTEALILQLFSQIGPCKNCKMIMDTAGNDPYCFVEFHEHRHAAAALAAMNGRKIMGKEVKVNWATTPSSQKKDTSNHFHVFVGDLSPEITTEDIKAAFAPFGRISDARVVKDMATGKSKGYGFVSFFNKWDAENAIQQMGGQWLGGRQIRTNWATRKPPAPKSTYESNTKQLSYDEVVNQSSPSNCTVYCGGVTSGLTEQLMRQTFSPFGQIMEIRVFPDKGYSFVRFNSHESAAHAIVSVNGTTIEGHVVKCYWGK

B1: U11 (ssRNA)
RNA: UUUUUUUUUUU
- binding result (TIA1 RRM2_3; single strand): binds
- binding result (TIA1 RRM1-3): binds

B2: RousettusHKU9 SL3 (structured_RNA)
RNA: UCACUCUUGAACGAACUUAAA
- Kd (TIA1 RRM2_3): 410 ± 20 nM

B3: MERS SL3 (structured_RNA)
RNA: UUUGAUUUUAACGAACUUAAA
- Kd (TIA1 RRM2_3): 300 ± 20 nM

B4: SL2+SL3 (structured_RNA)
RNA: UUUCGAUCUCUUGUAGAUCUGUUCUCUAAACGAACUUUAAAAUCU
- Kd (TIA1 RRM2_3; two hairpins): 430 ± 50 nM

B5: SL3 (structured_RNA)
RNA: UGUUCUCUAAACGAACUUUAA
- Kd (TIA1 RRM2_3): 780 ± 90 nM

B6: SL2 (structured_RNA)
RNA: UUUCGAUCUCUUGUAGAUC
- Kd (TIA1 RRM2_3; hairpin, 5-nt loop): 2470 ± 370 nM
